Experimental data from US20240400711A1 (SOUND BIOPHARMACEUTICALS, published 2024).
Read-outs that look alike come from different tables or passages of the source.

T1: rhesus macaque erythrocytes (rhesus macaque)
T1 chain: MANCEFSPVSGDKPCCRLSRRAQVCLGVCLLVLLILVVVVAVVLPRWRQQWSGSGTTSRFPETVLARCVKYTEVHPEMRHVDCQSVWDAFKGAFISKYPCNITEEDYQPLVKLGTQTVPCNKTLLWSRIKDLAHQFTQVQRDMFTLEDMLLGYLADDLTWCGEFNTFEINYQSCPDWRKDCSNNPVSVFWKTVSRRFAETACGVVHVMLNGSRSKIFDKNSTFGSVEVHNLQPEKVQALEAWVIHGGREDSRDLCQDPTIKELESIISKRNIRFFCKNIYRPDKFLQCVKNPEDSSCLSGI

T2: mouse CD38 antigen protein (mouse, UniProt P56528 45-304, limits assumed)
T2 construct: also called mouse antigen
T2 sequence (looked up): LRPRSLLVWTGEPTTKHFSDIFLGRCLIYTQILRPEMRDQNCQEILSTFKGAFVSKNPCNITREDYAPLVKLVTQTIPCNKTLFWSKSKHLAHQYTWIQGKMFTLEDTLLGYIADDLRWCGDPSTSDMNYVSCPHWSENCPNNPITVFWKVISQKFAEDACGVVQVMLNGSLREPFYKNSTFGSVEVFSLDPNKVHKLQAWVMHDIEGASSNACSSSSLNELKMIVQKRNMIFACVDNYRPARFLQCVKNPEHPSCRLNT

T3: rat CD38 antigen protein (rat, UniProt Q64244 45-303, limits assumed)
T3 construct: also called rat antigen
T3 sequence (looked up): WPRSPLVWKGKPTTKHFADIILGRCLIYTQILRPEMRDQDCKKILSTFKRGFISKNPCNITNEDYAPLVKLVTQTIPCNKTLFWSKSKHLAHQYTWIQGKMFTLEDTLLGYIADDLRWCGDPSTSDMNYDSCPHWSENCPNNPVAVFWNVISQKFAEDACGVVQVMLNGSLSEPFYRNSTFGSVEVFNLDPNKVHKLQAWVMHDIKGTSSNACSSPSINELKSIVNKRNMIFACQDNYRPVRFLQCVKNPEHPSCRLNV


Assays:
FcγRIIIa(F176) = FcγRIIIa(F176) (UniProt P08637 17-208, limits assumed); test: kinetics, FcγRIIIa as ligand, antibody as analyte
FcγRIIIa (V176) = FcγRIIIa (V176) (UniProt P08637 17-208, limits assumed); test: kinetics, FcγRIIIa as ligand, antibody as analyte
[1] = biological target: T4, CD38 on CD38-positive cells (human, UniProt P28907 1-300); test: flow cytometry on NCI-H211 cells (small cell lung cancer), MFI against antibody concentration [table, row NCI-H211]
T4 construct: whole, on cells; also called CD38 on H211, SU-DHL-6, Daudi, Ramos (Romas), Raji, SU-DHL-1, DU145, H157 cells

[2] = biological target: T4, CD38 on CD38-positive cells; test: cell-based or functional assay
[3] = biological target: T1, rhesus macaque erythrocytes; test: flow cytometry on rhesus macaque erythrocytes
[4] = biological target: T5, recombinant extracellular domain of CD38 (human, UniProt P28907 43-300); test: Biacore SPR
T5 construct: also called CD38 extracellular domain; AtaGenix ATMP00140HU

[5] = biological target: T5, recombinant extracellular domain of CD38; test: Biacore SPR; remark: listed apart in the source
[6] = biological target: T4, CD38 on CD38-positive cells; test: flow cytometry on SU-DHL-6 cells (B cell lymphoma), MFI against antibody concentration [table, row SU-DHL-6]
[7] = biological target: T4, CD38 on CD38-positive cells; test: flow cytometry on CD38-positive H211 cells
[8] = biological target: T2, mouse CD38 antigen protein; test: ELISA on coated mouse CD38 antigen (1 µg/mL) [panel Mouse CD38]
Procedure: (§1) The cross-reactivity of the antibodies between CD38 antigen proteins of different species was measured using Elisa. Coating was performed with CD38 antigens of different species (human, cynomolgus, mouse, and rat) (1 μg/mL, 50 mL/well), and incubation was performed overnight at 2-8° C.

rat CD38 antigen protein = biological target: T3, rat CD38 antigen protein; test: ELISA on coated rat CD38 antigen (1 µg/mL) [panel Rat CD38]
Procedure: as §1

Chain of FcγRIIIa (V176) (P08637 17-208 F176V limits assumed): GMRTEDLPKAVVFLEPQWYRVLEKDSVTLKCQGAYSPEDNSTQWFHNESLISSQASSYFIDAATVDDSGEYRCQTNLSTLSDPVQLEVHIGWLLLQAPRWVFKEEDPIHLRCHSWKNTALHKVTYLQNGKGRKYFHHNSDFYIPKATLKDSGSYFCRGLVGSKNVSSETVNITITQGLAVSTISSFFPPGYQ
Chain of FcγRIIIa(F176) (P08637 17-208 limits assumed): as the sequence (P08637 17-208 F176V limits assumed) above, with V160F counted along it

Kd (FcγRIIIa(F176))	Kd (FcγRIIIa (V176))	koff (FcγRIIIa (V176))	kon (FcγRIIIa (V176))	EC50 [1]	Rate of apoptosis (%), Daudi cells [2]	Rate of apoptosis (%), Raji cells [2]	Rate of apoptosis (%), Romas cells [2]	Rate of apoptosis (%), SU-DHL-6 cells [2]	EC50 [3]	Kd [4]	koff [4]	kon [4]	Kd [5]	koff [5]	kon [5]	EC50 [6]	EC50 [7]	binding result [8]	binding result (rat CD38 antigen protein)	Binder
19.5 nM	29.5 nM	0.0229 s⁻¹	778000 M⁻¹ s⁻¹	0.555 µg/mL	40.9%	7.14%	64.2%	21.2%	2 to 5 µg/mL											FTL004-1 (antibody, human IgG1, kappa, copies: 2 + 2) heavy: not shown light: DIVLTQSPASLAVSPGQRATITCRASESVDNFGITFMHWYQQKPGQPPKLLIYRASNLESGVPARFSGSGSRTDFTLTINPVEANDTANYYCQQSSKDPRTFGQGTKLEIKRTVAAPSVFIFPPSDEQLKSGTASVVCLLNNFYPREAKVQWKVDNALQSGNSQESVTEQDSKDSTYSLSSTLTLSKADYEKHKVYACEVTHQGLSSPVTKSFNRGEC
					10.6%	5.73%	9.78%	10.4%		12.2 nM	0.00363 s⁻¹	297000 M⁻¹ s⁻¹	1.96 nM	0.000355 s⁻¹	181000 M⁻¹ s⁻¹	0.548 µg/mL	1.94 µg/mL			Daratumumab (antibody, V domains shown) VH: EVQLLESGGGLVQPGGSLRLSCAVSGFTFNSFAMSWVRQAPGKGLEWVSAISGSGGGTYYADSVKGRFTISRDNSKNTLYLQMNSLRAEDTAVYFCAKDKILWFGEPVFDYWGQGTLVTVSS VL: not shown
										14.6 nM	0.000969 s⁻¹	66100 M⁻¹ s⁻¹	2.02 nM	0.0005 s⁻¹	248000 M⁻¹ s⁻¹			no binding (tested: 300 µg/ml)	no binding (tested: 300 µg/ml)	H2 antibody (antibody, V domains shown, Murine monoclonal antibody from a BALB/c hybridoma; also called H2 mAb; Hybridoma-2) VH: EVQLQESGAELVRSGASVKMSCKASGYTFTDYNVHWIKQTPGQGLEWIGYFYPRNGATHYNQKFTGKATLTADTSSSTAYIQISSLTSEDSAVYFCARGETPGTFPYWGQGTLVTVSA VL: DIVLTQSPASLTVSLGQRATISCRASESVDNFGITFMHWYQQKPGQPPKLLIYRASNLESGIPARFSGSGSRTDFTLTIDPVETDDVATYYCQQSSKDPRTFGGGTKLEIK
